Test results published in article PMC6497250, “High-resolution cryo-EM structures of the E. coli hemolysin ClyA oligomers” (PLoS ONE, 2019).
Several values for one entry are separate records, joined by “and”; a condition that tells them apart may be missing. Identical values can stand only once.

Columns and labels:
[1] = target: the molecule itself; assay: cryo-EM structure; digitonin-induced intermediate state; Talos Arctica; 2D class averages and a map at 16 Å
[2] = target: the molecule itself; assay: cryo-EM structure; sample #1: pore complexes in DDM, all SEC fractions pooled; Talos Arctica 200 kV; maps at 6.8 Å and 7.5 Å
[3] = target: the molecule itself; assay: negative staining EM; ClyA incubated with 1% digitonin overnight, fractions from SEC (Superose 6 10/300 GL); intermediate state
[4] = target: the molecule itself; assay: cryo-EM structure; sample #3: ClyA 2.5 mg/mL with 0.5% DDM and 5 mM DTT at 4°C overnight, then SEC in 25 mM Tris-HCl pH 8.0, 150 mM NaCl, 0.05% digitonin, 2 mM DTT; Titan Krios 300 kV; C12, C13, C14 classes

B1: E. coli cytolysin A (ClyA) with complete N-terminal purification tag (natural protein)
chain: MTEIVADKTVEVVKNAIETADGALDLYNKYLDQVIPWQTFDETIKELSRFKQEYSQAASVLVGDIKTLLMDSQDKYFEATQTVYEWCGVATQLLAAYILLFDEYNEKKASAQKDILIKVLDDGITKLNEAQKSLLVSSQSFNNASGKLLALDSQLTNDFSEKSSYFQSQVDKIRKEAYAGAAAGVVAGPFGLIISYSIAAGVVEGKLIPELKNKLKSVQNFFTTLSNTVKQANKDIDAAKLKLTTEIVAIGEIKTETETTRFYVDYDDLMLSLLKEAAKKMINTCNEYQKRHGKKTLFEVPEV
notes: E. coli cytolysin A (ClyA), cDNA amplified from BL21 (DE3), mutations and deletions removed by two-step PCR; final plasmid has A248V compared to UniProtKB P77335; The soluble protein is a monomer; the oligomers (12, 13, 14, about 3) form with detergent; also called hemolysin (HlyE); silent hemolysin A (SheA); source: E. coli BL21 (DE3), purified (Ni2+-NTA, Mono Q anion exchange); not shown: His6, …
stoichiometry N [1]: 3 and 4 | stoichiometry N [2]: 12 and 13 | stoichiometry N [3]: ~3 | stoichiometry N [4]: 14
